Measured values as given in JP2007302676A (dated 2007).

Columns and labels:
[1] = target: 全長ヒトインテグリンアルファ4ベータ7 (expressed in 293 cells, purified by Fib504 affinity chromatography) (human) (UniProt P13612); assay: Biacore SPR, Fab immobilised on CM5, alpha4beta7 injected (summary of Table 3)
[2] = target: T1, 全長ヒトインテグリンアルファ4ベータ7 (expressed in 293 cells, purified by Fib504 affinity chromatography) (human, UniProt P13612 34-1032; P26010 20-798); assay: phage-displayed Fab on immobilised human alpha4beta7
T1 construct: mature; also called 固定化アルファ4ベータ7; α4β7

B1: hu504.32 (Fab) (Fab, V domains shown)
VH: EVQLVESGGGLVQPGGSLRLSCAASGFFITNNYWGWVRQAPGKGLEWVGYISYSGSTSYNPSLKSRFTISRDTSKNTFYLQMNSLRAEDTAVYYCAMTGSSGYFDFWGQGTLVTVSS
VL: DIQMTQSPSSLSASVGDRVTITCRASESVDDLLHWYQQKPGKAPKLLIKYASQSISGVPSRFSGSGSGTDFTLTISSLQPEDFATYYCQQGNSLPNTFGQGTKVEIKR
- fold tighter binding relative to the starting rat antibody [1]: 3 fold

B2: Fib504Kグラフト (HVR graft with light chain Y49K, Fab displayed on phage) (Fab, V domains shown)
VH: EVQLVESGGGLVQPGGSLRLSCAASGFFITNNYWGWVRQAPGKGLEWVGYISYSGSTSYNPSLKSRFTISADTSKNTAYLQMNSLRAEDTAVYYCAMTGSSGYFDFWGQGTLVTVSS
VL: DIQMTQSPSSLSASVGDRVTITCRASESVDTYLHWYQQKPGKAPKLLIKYASQSISGVPSRFSGSGSGTDFTLTISSLQPEDFATYYCQQGNSLPNTFGQGTKVEIKR
notes: also called hu504Kグラフト; ヒト化504Kグラフト
- binding result [2]: no binding

B3: Fib504グラフト (direct HVR graft, Fab displayed on phage) (Fab, V domains shown)
VH: EVQLVESGGGLVQPGGSLRLSCAASGFFITNNYWGWVRQAPGKGLEWVGYISYSGSTSYNPSLKSRFTISADTSKNTAYLQMNSLRAEDTAVYYCAMTGSSGYFDFWGQGTLVTVSS
VL: DIQMTQSPSSLSASVGDRVTITCRASESVDTYLHWYQQKPGKAPKLLIYYASQSISGVPSRFSGSGSGTDFTLTISSLQPEDFATYYCQQGNSLPNTFGQGTKVEIKR
notes: Tested as monovalent Fab-g3 on phage (VH-CH1 fused to truncated P3); also called hu504グラフト; ヒト化抗体504グラフト
- binding result [2]: no binding
